Assay [1] has as its target CD19 surface antigen on Raji lymphoma target-cells (#CCL-86, ATCC) (UniProt P15391). Put plainly: cell-based or functional assay.
Assay [2] addresses rhIL-18 (IL-18, #9124-IL-010, R&D Systems) (human) (UniProt Q14116). Put plainly: cell-based or functional assay.
UniProt Q14116, sequence (Q14116 37-193 limits assumed): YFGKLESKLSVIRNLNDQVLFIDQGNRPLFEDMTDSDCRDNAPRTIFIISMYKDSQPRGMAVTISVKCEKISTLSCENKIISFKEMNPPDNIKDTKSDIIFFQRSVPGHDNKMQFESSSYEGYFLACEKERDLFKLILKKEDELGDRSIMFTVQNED

UniProt P15391, sequence (P15391 20-556 limits assumed): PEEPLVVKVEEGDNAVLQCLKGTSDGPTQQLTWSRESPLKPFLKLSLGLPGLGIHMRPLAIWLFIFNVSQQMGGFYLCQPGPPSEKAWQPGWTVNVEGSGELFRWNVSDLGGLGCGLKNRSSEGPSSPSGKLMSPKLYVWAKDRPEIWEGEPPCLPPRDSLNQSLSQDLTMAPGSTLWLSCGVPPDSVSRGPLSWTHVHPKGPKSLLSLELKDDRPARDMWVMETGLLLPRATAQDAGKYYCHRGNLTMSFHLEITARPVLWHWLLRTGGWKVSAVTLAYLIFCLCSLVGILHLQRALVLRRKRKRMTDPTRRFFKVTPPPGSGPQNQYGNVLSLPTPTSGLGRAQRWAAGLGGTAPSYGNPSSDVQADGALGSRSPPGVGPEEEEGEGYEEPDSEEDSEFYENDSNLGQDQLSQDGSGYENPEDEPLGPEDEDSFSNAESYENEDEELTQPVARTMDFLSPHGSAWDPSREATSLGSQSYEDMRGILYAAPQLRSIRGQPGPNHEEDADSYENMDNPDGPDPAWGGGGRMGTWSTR

Take “CD19-specific CAR of CD19SCFV-CD28-4-1BB-CD3 CAR-T-cells (#PM-CAR1003-10M, ProMAB)”: in assay [1], the Mean concentration (pg/mL) of IFN-γ in culture medium, Tumor + CAR-T, day 1 stood at 6910 pg/mL; the Mean cumulative concentration (pg/mL) of IFN-γ in culture medium, Tumor + CAR-T, day 2 came to 21500 pg/mL; the Mean cumulative concentration (pg/mL) of IFN-γ in culture medium, Tumor + CAR-T, day 3 came out at 32700 pg/mL.

For the substance “recombinant human IL-18BP (rhIL-18BP, Tadekinig alfa)”, in assay [2], the IL-18BP-mediated inhibition (%) of IFN-γ in Tumor + CAR-T + IL-18 + IL-12 culture, day 1 is 82%; the IL-18BP-mediated inhibition (%) of IFN-γ in Tumor + CAR-T + IL-18 + IL-12 culture, day 2 stood at 79%; the IL-18BP-mediated inhibition (%) of IFN-γ in Tumor + CAR-T + IL-18 + IL-12 culture, day 3 amounted to 75%; the IL-18BP-mediated inhibition (%) of IFN-γ in Tumor + CAR-T + IL-18 culture, day 1 was 100%. In assay [2], the IL-18BP-mediated inhibition (%) of IFN-γ in Tumor + CAR-T + IL-18 culture, day 2 stood at 92%; the IL-18BP-mediated inhibition (%) of IFN-γ in Tumor + CAR-T + IL-18 culture, day 3 was 79%; the reduction of IFN-γ production boosted by rhIL-12 and rhIL-18, average over three days came to 80%.

For the origin of these results see patent US20220401476A1.
